Measurements taken from paper PMC7085222, “TBC1D25 Regulates Cardiac Remodeling Through TAK1 Signaling Pathway” (International Journal of Biological Sciences, 2020).

T1: Flag-tagged TBC1 Domain Family Member 25 (TBC1D25) (UniProt Q3MII6-1 1-688)
T1 construct: Vector pcDNA5-flag or pHAGE-3xflag; The reverse primer carries the stop codon, so the tag is probably N-terminal; also called Flag-TBC1D25; OATL1; source: HEK-293T, transfected, in lysate (co-IP); immunopurified and eluted with FLAG peptide (GST pull-down)
T1 sequence (looked up): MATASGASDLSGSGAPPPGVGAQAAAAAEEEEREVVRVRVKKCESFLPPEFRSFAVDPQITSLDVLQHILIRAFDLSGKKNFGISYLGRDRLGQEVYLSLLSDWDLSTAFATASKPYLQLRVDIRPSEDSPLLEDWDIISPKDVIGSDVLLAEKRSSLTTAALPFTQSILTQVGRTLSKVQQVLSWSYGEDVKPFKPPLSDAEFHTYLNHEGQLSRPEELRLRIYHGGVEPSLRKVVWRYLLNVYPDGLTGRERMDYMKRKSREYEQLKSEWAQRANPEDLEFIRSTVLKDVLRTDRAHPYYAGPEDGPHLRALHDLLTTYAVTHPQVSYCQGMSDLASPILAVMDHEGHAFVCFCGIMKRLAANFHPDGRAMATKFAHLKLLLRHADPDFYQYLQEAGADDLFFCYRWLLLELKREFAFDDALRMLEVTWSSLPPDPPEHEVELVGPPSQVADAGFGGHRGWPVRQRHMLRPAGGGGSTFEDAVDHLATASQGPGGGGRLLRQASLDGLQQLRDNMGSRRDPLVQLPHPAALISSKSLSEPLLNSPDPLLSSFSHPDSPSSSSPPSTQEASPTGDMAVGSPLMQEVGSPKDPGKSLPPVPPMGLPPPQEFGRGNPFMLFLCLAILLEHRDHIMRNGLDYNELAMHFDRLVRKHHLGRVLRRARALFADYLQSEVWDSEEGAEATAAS

T2: GST-HA-TBC1D25 (UniProt Q3MII6-1 1-688)
T2 construct: also called OATL1
T2 sequence (looked up): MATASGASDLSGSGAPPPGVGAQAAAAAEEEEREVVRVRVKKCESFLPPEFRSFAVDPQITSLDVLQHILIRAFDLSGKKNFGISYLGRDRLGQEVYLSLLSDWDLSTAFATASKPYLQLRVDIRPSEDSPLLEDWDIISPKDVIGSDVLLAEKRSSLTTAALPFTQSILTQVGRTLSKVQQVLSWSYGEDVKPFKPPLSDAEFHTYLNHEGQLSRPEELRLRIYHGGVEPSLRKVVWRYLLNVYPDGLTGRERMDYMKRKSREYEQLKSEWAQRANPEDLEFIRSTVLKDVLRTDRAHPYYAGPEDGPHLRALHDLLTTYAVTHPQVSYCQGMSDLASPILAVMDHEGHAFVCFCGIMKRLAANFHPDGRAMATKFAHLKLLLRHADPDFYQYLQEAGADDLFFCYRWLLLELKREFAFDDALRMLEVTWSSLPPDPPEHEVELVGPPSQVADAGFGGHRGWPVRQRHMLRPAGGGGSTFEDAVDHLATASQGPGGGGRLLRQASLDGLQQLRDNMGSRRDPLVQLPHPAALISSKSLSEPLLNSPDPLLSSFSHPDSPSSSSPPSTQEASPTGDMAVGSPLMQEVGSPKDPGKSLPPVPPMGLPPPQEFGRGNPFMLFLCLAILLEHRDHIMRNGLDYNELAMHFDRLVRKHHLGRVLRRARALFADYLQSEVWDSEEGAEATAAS


Key:
[1] = molecular target: T1, Flag-tagged TBC1 Domain Family Member …; test: pull-down; GST-HA-tagged protein from E. coli extracts held on glutathione-sepharose 4B beads, washed with PBS, incubated 4 h at 4 C with immunopurified Flag-tagged protein; washed with NaCl wash buffer; Western blot; GST tag as negative control; settings: both partners purified
[2] = molecular target: T2, GST-HA-TBC1D25; test: as above; settings: both partners purified

binding result [1] | binding result [2] | Binder
binds | – | GST-HA-TAK1 (enzyme, UniProt O43318-2 1-579, looked up, also called pGEX-4T-1-GST-HA-TAK1; MAP3K7) MSTASAASSSSSSSAGEMIEAPSQVLNFEEIDYKEIEVEEVVGRGAFGVVCKAKWRAKDVAIKQIESESERKAFIVELRQLSRVNHPNIVKLYGACLNPVCLVMEYAEGGSLYNVLHGAEPLPYYTAAHAMSWCLQCSQGVAYLHSMQPKALIHRDLKPPNLLLVAGGTVLKICDFGTACDIQTHMTNNKGSAAWMAPEVFEGSNYSEKCDVFSWGIILWEVITRRKPFDEIGGPAFRIMWAVHNGTRPPLIKNLPKPIESLMTRCWSKDPSQRPSMEEIVKIMTHLMRYFPGADEPLQYPCQYSDEGQSNSATSTGSFMDIASTNTSNKSDTNMEQVPATNDTIKRLESKLLKNQAKQQSESGRLSLGASRGSSVESLPPTSEGKRMSADMSEIEARIAATTGNGQPRRRSIQDLTVTGTEPGQVSSRSSSPSVRMITTSGPTSEKPTRSHPWTPDDSTDTNGSDNSIPMAYLTLDHQLQPLAPCPNSKESMAVFEQHCKMAQEYMKVQTEIALLLQRKQELVAELDQDEKDQQNTSRLVQEHKKLLDENKSLSTYYQQCKKQLEVIRSQQQKRQGTS
– | binds | Flag-TAK1, immunopurified (enzyme, UniProt O43318-2 1-579, looked up, Probably expressed in HEK-293T cells like the other Flag constructs; also called MAP3K7; source: immunopurified, eluted with FLAG peptide) MSTASAASSSSSSSAGEMIEAPSQVLNFEEIDYKEIEVEEVVGRGAFGVVCKAKWRAKDVAIKQIESESERKAFIVELRQLSRVNHPNIVKLYGACLNPVCLVMEYAEGGSLYNVLHGAEPLPYYTAAHAMSWCLQCSQGVAYLHSMQPKALIHRDLKPPNLLLVAGGTVLKICDFGTACDIQTHMTNNKGSAAWMAPEVFEGSNYSEKCDVFSWGIILWEVITRRKPFDEIGGPAFRIMWAVHNGTRPPLIKNLPKPIESLMTRCWSKDPSQRPSMEEIVKIMTHLMRYFPGADEPLQYPCQYSDEGQSNSATSTGSFMDIASTNTSNKSDTNMEQVPATNDTIKRLESKLLKNQAKQQSESGRLSLGASRGSSVESLPPTSEGKRMSADMSEIEARIAATTGNGQPRRRSIQDLTVTGTEPGQVSSRSSSPSVRMITTSGPTSEKPTRSHPWTPDDSTDTNGSDNSIPMAYLTLDHQLQPLAPCPNSKESMAVFEQHCKMAQEYMKVQTEIALLLQRKQELVAELDQDEKDQQNTSRLVQEHKKLLDENKSLSTYYQQCKKQLEVIRSQQQKRQGTS
